The results in this text go back to patent US20150266957A1 (Regeneron, published 2015).

The target of assay [1] is T1, mouse PROKR1 (mouse (Mus musculus), UniProt Q9JKL1 1-393). Briefly: cell-based or functional assay.
Assay [2] addresses T2, human PROKR1 (1-62)-hFc (human).
T2 construct: also called soluble human PROKR1 (N-terminal portion)
Briefly: SPR (Biacore 4000), 25 C, antibody captured, antigen injected at 25 and 100 nM. As for the experimental part:
(§1) Kinetic experiments were carried out using HBS-EP (10 mM HEPES, 150 mM NaCl, 3 mM EDTA, 0.05% Surfactant P20, pH 7.4) as both the running buffer and the sample buffer. Antigen-antibody association rates were measured by injecting 2 concentrations (25 and 100 nM) of both human PROKR1 (1-62)-hFc (SEQ ID NO:179) and human PROKR2(1-53)-hFc (SEQ ID NO:180) over the captured antibody surface. Antibody-antigen association was monitored for 90 seconds while dissociation was monitored for 360 seconds. Kinetic on-rate (kₐ) and off-rate (kd) constants were determined from the data using Scrubber software version 2.0 c. Binding dissociation equilibrium constants (KD) and dissociative half-lives (t 1/2) were calculated from the kinetic rate constants as: KD=kd/kₐ and t 1/2=ln(2)/kd.
In general terms: Surface plasmon resonance follows binding to a sensor surface in real time, without labels.

Assay [3] concerns the target T3, human PROKR2 (human, UniProt Q8NFJ6 1-384).
T3 construct: Expressed on engineered HEK293 or CHO cells; also called hPROKR2; prokineticin receptor 2
Briefly: flow cytometry, HEK293 cells expressing the target. As for the experimental part:
(§2) Anti-PROKR antibodies generated in accordance with Example 1 were tested for the ability to bind to human, mouse, and monkey PROKR1 and PROKR2. For these experiments, HEK293 cells were engineered to express: human PROKR1; human PROKR2; mouse PROKR1; mouse PROKR2; cynomolgus monkey PROKR1; or cynomolgus monkey PROKR2. Binding of anti-human PROKR antibodies to the PROKR-expressing cell lines was measured by flow cytometry.
(§3) Adherent cells were collected using 1 mM EDTA in PBS, then washed, and re-suspended in cold PBS containing 5% FBS. For the binding experiments, each anti-PROKR antibody was added to 250,000 cells in 500 μl of PBS with 5% FBS (final antibody concentration of 13 nM). After incubation for 20 minutes at room temperature, the cells were washed with PBS containing 5% FBS. A secondary antibody, recognizing either human (Jackson Immuno Research, #115-135-205) or mouse Fc (BD Pharmigen, #550826) and conjugated to allophycyanin, was then added to the cell mixture at a final concentration of 13.3 nM. After incubating for 20 minutes on ice, the cells were washed and resuspended in PBS containing 5% FBS and then sorted and analyzed on a FACSCalibur (BD Biosciences) flow cytometer to determine relative binding by the candidate antibodies. The cell samples containing secondary antibody alone were used as negative control for FACS gating. Histograms of cells stained with anti-human PROKR antibodies were compared with cells stained with secondary alone. […] ND=not determined.
On the technique in general: In flow cytometry, cells or beads pass a laser one at a time.

Assay [4] concerns the target T4, human PROKR2(1-53)-hFc (human).
T4 construct: also called soluble human PROKR2 (N-terminal portion)
As to the kind of experiment: SPR (Biacore 4000), 25 C, antibody captured. As for the experimental part:
as §1

Assay [5] has as its target human PROKR1 (human, UniProt Q8TCW9 1-393). As to the kind of experiment: cell-based or functional assay.
Assay [6] has as its target T5, cynomolgus monkey PROKR1 (cynomolgus monkey (Macaca fascicularis), UniProt G7PMD0 1-393).
T5 construct: whole, on cells; Expressed on engineered HEK293 cells; also called MfPROKR1; 293/mfPROKR1
As to the kind of experiment: flow cytometry, HEK293 cells expressing the target. As for the experimental part: as §2, §3

Assay [7] concerns the target T1, mouse PROKR1. As to the kind of experiment: flow cytometry, HEK293 cells expressing the target. Here is the method:
as §2, §3

Assay [8] deals with T6, mouse PROKR2 (mouse (Mus musculus), UniProt Q8K458 1-381).
T6 construct: whole, on cells; Expressed on engineered HEK293 or CHO cells; also called mPROKR2; CHO/mPROKR2
Briefly: flow cytometry, HEK293 cells expressing the target, 13 nM antibody. As for the experimental part: as §2, §3

The target of assay [9] is T3, human PROKR2. Described as above. Here is the method:
as §2, §3

In assay [10] the target is T7, cynomolgus monkey PROKR2 (cynomolgus monkey (Macaca fascicularis), UniProt A0A7N9CAJ3 1-384).
T7 construct: whole, on cells; Expressed on engineered HEK293 cells; also called MfPROKR2; 293/mfPROKR2
As to the kind of experiment: flow cytometry, HEK293 cells expressing the target. As for the experimental part:
as §2, §3

The target of assay [11] is T6, mouse PROKR2. Briefly: flow cytometry, HEK293 cells expressing the target. As for the experimental part: as §2, §3

T1 sequence (Q9JKL1 whole entry): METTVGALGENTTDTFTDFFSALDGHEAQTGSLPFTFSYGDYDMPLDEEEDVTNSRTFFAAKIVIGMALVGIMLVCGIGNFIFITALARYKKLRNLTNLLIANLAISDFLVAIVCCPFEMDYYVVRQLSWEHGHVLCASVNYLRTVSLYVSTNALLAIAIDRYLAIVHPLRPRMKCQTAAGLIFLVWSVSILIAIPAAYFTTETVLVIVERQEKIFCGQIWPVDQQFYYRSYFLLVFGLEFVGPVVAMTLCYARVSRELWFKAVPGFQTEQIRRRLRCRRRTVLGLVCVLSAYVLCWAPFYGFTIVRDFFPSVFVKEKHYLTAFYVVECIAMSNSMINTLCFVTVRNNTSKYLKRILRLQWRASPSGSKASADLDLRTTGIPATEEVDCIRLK
human PROKR1, sequence (Q8TCW9 whole entry): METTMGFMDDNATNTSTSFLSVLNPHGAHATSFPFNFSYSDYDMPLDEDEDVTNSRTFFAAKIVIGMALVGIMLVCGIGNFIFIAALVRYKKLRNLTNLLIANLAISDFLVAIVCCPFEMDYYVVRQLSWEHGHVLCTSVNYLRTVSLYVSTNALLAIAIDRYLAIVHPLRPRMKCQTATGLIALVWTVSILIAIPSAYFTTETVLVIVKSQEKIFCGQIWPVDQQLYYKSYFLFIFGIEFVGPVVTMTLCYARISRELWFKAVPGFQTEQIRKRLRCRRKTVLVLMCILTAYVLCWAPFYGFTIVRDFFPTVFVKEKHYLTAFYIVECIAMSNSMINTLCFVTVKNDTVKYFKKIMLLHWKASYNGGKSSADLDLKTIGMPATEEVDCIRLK
T3 sequence (Q8NFJ6 whole entry): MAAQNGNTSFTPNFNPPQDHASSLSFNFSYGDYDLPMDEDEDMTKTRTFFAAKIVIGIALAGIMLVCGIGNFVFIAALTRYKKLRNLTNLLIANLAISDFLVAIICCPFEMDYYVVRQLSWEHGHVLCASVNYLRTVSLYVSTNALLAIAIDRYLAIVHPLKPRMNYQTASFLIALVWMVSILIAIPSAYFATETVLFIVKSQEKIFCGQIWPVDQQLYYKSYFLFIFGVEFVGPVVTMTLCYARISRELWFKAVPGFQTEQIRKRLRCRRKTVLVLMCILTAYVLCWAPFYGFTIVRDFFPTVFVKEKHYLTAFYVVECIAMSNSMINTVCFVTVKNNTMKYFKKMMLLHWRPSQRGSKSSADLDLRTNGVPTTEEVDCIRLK
T2 sequence (chain, as listed by the source limits assumed): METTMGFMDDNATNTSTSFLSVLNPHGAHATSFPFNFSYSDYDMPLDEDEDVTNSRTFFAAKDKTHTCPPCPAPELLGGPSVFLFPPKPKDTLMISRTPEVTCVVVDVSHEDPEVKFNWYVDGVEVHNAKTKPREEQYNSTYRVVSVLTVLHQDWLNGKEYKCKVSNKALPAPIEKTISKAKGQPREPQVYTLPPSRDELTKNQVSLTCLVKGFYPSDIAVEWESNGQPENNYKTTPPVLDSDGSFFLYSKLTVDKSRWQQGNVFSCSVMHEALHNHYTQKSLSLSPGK
T6 sequence (Q8K458 whole entry): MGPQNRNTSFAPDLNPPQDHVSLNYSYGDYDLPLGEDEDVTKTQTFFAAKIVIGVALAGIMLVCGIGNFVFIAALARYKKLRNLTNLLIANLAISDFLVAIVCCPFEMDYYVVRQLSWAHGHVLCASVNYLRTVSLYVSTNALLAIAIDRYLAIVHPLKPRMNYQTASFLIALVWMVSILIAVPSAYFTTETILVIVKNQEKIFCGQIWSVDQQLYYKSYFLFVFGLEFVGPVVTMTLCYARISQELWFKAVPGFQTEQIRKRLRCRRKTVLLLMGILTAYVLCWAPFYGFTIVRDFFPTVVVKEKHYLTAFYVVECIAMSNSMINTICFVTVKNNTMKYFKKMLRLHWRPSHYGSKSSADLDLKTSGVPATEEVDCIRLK
T5 sequence (G7PMD0 entry or part of it): as the sequence (Q8TCW9 whole entry) above, with V22A, T31A, S40G, I82V, V135I, K210R, V246F, D348N, V350A counted along it
T7 sequence (A0A7N9CAJ3 entry or part of it): as the sequence (Q8NFJ6 whole entry) above, with T11A, R357W, D364E, T374A counted along it

B1: H4H6671P (antibody, human IgG4, V domains shown)
VH: EVQLVESGGGLVKPGGSLRLSCAASGFTFSNAWMSWVRQAPGKGLEWVGRIKSRSDGGTTDYAAPVKGRFTISRDDSKNTLYLQMNSLKTEDTALYYCSPPGSHYGYWGQGTLVTVSS
VL: not shown
The term Kd denotes the concentration at which binding is half-saturated. Broadly, the koff is the first-order rate constant of dissociation. What is called kon is a measure of how fast the partners come together. By t½ is commonly meant how long it takes for the measured level to halve. Regarding B1, the “Block (%), calcium flux, mPROKR1 + PK1 (1 nM hPK1)” value in assay [1] was found to be 0%. In assay [2], this molecule came in with a Kd of 1.83 nM, a koff of 0.000362 s⁻¹, a kon of 198000 M⁻¹ s⁻¹ and a t½ of 32 min. For the same molecule, the binding result in assay [3] was “no binding”. In addition, the binding result in [4] is “no binding (tested: 25 and 100 nM antigen injected)”. For the same molecule, in [5], the “Block (%), calcium flux, hPROKR1 + PK1 (20 nM hPK1)” value came to 45% and the “IC50 (nM), inhibition of calcium flux, hPROKR1 + PK1 (20 nM hPK1)” value came out at 14.5 nM.

B2: H2M6385N (antibody, V domains shown)
VH: EVQVVESGGGLVKPGGSLRLSCAASGFTFSNVWMTWVRQAPGKGLEWVGRIKSKIEGGTTDYAASVKGRFTISRDDSKNTQSLQMNSLKSEDTAVYYCSTGHLAYWGQGTLVIVSS
VL: DIVMTQTPLSSPVSLGQPASISCRSSQSLVHSDGSTYLSWLQQRPGQPPRLLIYKISNRFSGVPDRFSGSGAGTDFTLKISRVEAEDVGIYYCMQATQFPTFGQGTKVEIK
notes: the prefix H2M is not spelled out
Regarding B2, the binding result was “no binding” in [6], “no binding” in assay [7], “binds” in assay [8] and “binds” in [9].

B3: H1M6386N (antibody, mouse IgG1, V domains shown)
VH: NVQLVESGGGLVKPGGSLRLSCVASGFTFANAWMTWVRQAPGKGLEWVGRIKSKTDGGTTDHAAPVKGRFIVSRDDSKSTLYLQMNSLKTEDTAVYYCTNYAFQLWGQGTLVTVSS
VL: DIVMTQTPLSSLVTLGQSASISCRSSQGLVHSDGNTYLSWLHQRPGQPPRLLIYKISNRFSGVPDRFTGSGAGTDFTLKISRVEAEDVGVYYCMQSTQFPRTFGQGTKVEIK
notes: Chimeric: human variable domains, mouse constant domains
In assay [2], B3 displayed a Kd of 4.85 nM, a koff of 0.00103 s⁻¹, a kon of 212000 M⁻¹ s⁻¹ and a t½ of 11 min. In [10], the binding result is “no binding”. For the same molecule, the binding result in [11] is listed as “no binding”. For the same molecule, the binding result in assay [6] is on record as “no binding”. Moreover, in assay [7], the binding result was “no binding”. Also, the binding result in [4] is “no binding (tested: 25 and 100 nM antigen injected)”. Besides, the binding result in assay [9] is recorded as “binds”. In addition, in assay [5], the “Block (%), calcium flux, hPROKR1 + PK1 (20 nM hPK1)” value was 92%; the “IC50 (nM), inhibition of calcium flux, hPROKR1 + PK1 (20 nM hPK1)” value was found to be 14.9 nM; the “IC50 (nM), inhibition of calcium flux, hPROKR1 + PK2 (20 nM hPK2)” value came to 16.2 nM.
